B1: TPR t1 (parent)
chain: GACCAAUCUGCCCUCAGAGCUCGAGAACAUCUUCGGAUGCAGAGGAGGCAGGCUUCGGUGGCGCGAUAGCGCCAACGUCCUCAACCUCCAAUGCAUCCCACCACAUGAUGAUGCCUGAAGAGCCUUGGUUUUUUG

Variants of: B1
Assay: polymerase ribozyme fitness, log enrichment relative to wild type (log ratio); higher = more active; in vitro selection for triplet polymerase activity
Method in brief: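 Mutant libraries for each subunit of a heterodimeric triplet polymerase ribozyme were made by PCR and then transcribed. Each library underwent one round of in vitro selection in triplicate: annealing with a biotinylated primer, the partner subunit and triplets, frozen incubation at −7 °C, gel excision of extended constructs, streptavidin-bead capture and RT-PCR. Input and output libraries were Illumina-sequenced, and only genotypes with ≥10 input reads and ≥1 read per output were kept. Fitness is the logarithm, base 2, of genotype enrichment over wild-type enrichment, computed from inverse-variance-weighted replicate averages.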

Row | Variant | polymerase ribozyme fitness (log ratio)
1 | A24G G48A C64G A108U A121C | -6.51
2 | A27G C72U C101A C104A | -4.48
3 | G25A G60U G117A | -7.98
4 | A27G G36U G42C G120A | -5.26
5 | C22U U78A U106G G120C | -5.48
6 | A24G C73A | -1.74
7 | A24U G69U C114G | -7.51
8 | A24G U59A U78C C85G U106G | -3.94
9 | A26G G51U C101U | -5.8
10 | C22U C28U C88G | -7.29
11 | G23C A26G C82U G120C | -4.02
12 | C22U C72G C124U | -3.08
13 | A24G G58U G61C | -1.68
14 | A27U A37C A91G C94U U106C | -5.4
15 | A27G G45U A46C C49U C124A G128A | -5.34
16 | G23U G58A G60C G120C | -7.23
17 | A26G C53U C101A | -3.58
18 | A24U U38A C72U C80G C99U | -7.56
19 | C22G U32G C70G C124A | -5.41
20 | C22U G45U C49A U106A | -5.79
21 | A27U A41U C49U C72U | -5.06

Row | Variant | polymerase ribozyme fitness (log ratio)
22 | A24C C73A | -6.46
23 | A27G A37G G57C U96G C115A | -5.8
24 | A24G A90C | -3.03
25 | A26U C80U | -4.31
26 | C22U G113A | -4.09
27 | C22U G113U | -5.27
28 | G25A C72A C86G | -6.66
29 | G23U C70A A91G G107U C114U | -5.99
30 | A27G C49A | -2
31 | G25U A121C | -4.83
32 | G25U A26G | -3.22
33 | A24G U81A | -2.64
34 | A26C C53U U54A G60U | -5.26
35 | G23U G51A C70A C101A G110A C114A | -6.74
36 | A27U A46C U116C | -6.31
37 | A26C A83C | -5.16
38 | A24G G45C | -3.46
39 | A26U C53U C56U | -3.75
40 | A27U A66C A83U | -4.44
41 | A24U C72U | -5.63
42 | A27C C62A A119G A121U | -2.98

Row | Variant | polymerase ribozyme fitness (log ratio)
43 | G23A C56U | -3.66
44 | A26G C114U | -3.27
45 | C22G U38G A43G G113U A119G | -4.22
46 | A27U A43U G48A C88A C123A | -4.03
47 | A26U G71A C82U | -4.08
48 | A27U C62A C101U A119U | -5.17
49 | A26C C34U G36U C72A | -6.66
50 | A24G G44U C64U U133G | -3.26
51 | A24G G61U C86G | -3.34
52 | C22U C64U | -3.81
53 | C22U G45U | -4.99
54 | C22U G45A | -4.02
55 | G23C C53U U92G C123U | -8.04
56 | A26G G36A A108U C123G | -5.15
57 | A24G G52A A66U C73U A91G | -4.6
58 | A27G C104A | -2.31
59 | C22G U106G | -3.47
60 | A26G U133G | -2.68
61 | A27G C56G U81A C94A G122A C123A U131A | -5.75
62 | A26G C89U | -2.94
63 | A26G C89G | -3.55

Row | Variant | polymerase ribozyme fitness (log ratio)
64 | A24G C97U G120U | -2.28
65 | A27G G69C A90C | -4.21
66 | A26C G61A | -3.85
67 | A26U G35U C53U U112C C114U G117A | -7.18
68 | G25U G61U | -5.8
69 | A26G U30C | -4.29
70 | A26C G117C G122A | -7.15
71 | A24G G57C A91G | -2.98
72 | A26U U81A | -4.77
73 | A27G G47A C53G | -2.77
74 | A26G A37U C49U G120U | -2.45
75 | A26G A105G | -4.04
76 | A26U C82G C115U | -5.9
77 | A26G G45C A95G C98G | -7.76
78 | A27G G69C C102U | -4.65
79 | A24C G36U A37U G42U G61A C79A G110C C123U | -7.34
80 | A24C G35A U55G C115U G127U | -6.12
81 | A26C G47U C56U U112C | -5.64
82 | A26U C98U | -4.2
83 | A27C U112C G120C U126C U131A | -3.22
84 | A26G G71A C88G G120C | -2.52

From the RNAGym collection of RNA variant scans (doi:10.1073/pnas.2313332121)
